Source: the supplement of paper PMC10567573

B1: ZNF207 (parent)
chain: CHICHKKLYTGPGLAIHCMQVHKE

Variants of: B1
Assay: protein stability index of a GFP-peptide fusion (GPS, HEK-293T) (PSI 1-6); higher = more stable
Details: c terminus: a fixed tail appended
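Note: lentivirally expressed fusions sorted by FACS into six bins by GFP to DsRed ratio, PSI derived from sequencing read proportions per bin multiplied by bin number.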

Point of comparison: CHICHKKLYTGPGLAIHCMQVHIE [K23I], protein stability index 2.21. Against it:
- CHICHKKLYTGPGLAIHCHQVHKE [M19H] — higher, 4.12
- CHICHKKLYTGPGLAIHCIQVHKE [M19I] — higher, 3.47
- CHICHKKLYTGPGLAIHCDQVHKE [M19D] — higher, 3.36
- CHICHKKLYTGPGLAIHCCQVHKE [M19C] — higher, 4.56
- CHICHKKLYTGPGLAIHCWQVHKE [M19W] — higher, 2.48
- CHICHKKLYTGPGLAIHCLQVHKE [M19L] — higher, 2.52
- CHICHKKLYTGPGLAIHCGQVHKE [M19G] — higher, 3.41
- CHICHKKLYTGPGLAIHCSQVHKE [M19S] — higher, 4.03
- CHICHKKLYTGPGLAIHCYQVHKE [M19Y] — higher, 2.94
- CHICHKKLYTGPGLAIHCNQVHKE [M19N] — higher, 3.9
- CHICHKKLYTGPGLAIHCRQVHKE [M19R] — higher, 3.41
- CHICHKKLYTGPGLAIHCQQVHKE [M19Q] — higher, 3.81
- CHICHKKLYTGPGLAIHCTQVHKE [M19T] — higher, 3.73
- CHICHKKLYTGPGLAIHCFQVHKE [M19F] — higher, 3.75
- CHICHKKLYTGPGLAIHCVQVHKE [M19V] — higher, 2.94
- CHICHKKLYTGPGLAIHCKQVHKE [M19K] — higher, 3.93
- CHICHKKLYTGPGLAIHCEQVHKE [M19E] — higher, 4.47
- CHICHKKLYTGPGLAIHCPQVHKE [M19P] — higher, 3.3
- CHICHKKLYTGPGLAIHCMVVHKE [Q20V] — higher, 3.88
- CHICHKKLYTGPGLAIHCMSVHKE [Q20S] — lower, 1.93
- CHICHKKLYTGPGLAIHCMDVHKE [Q20D] — higher, 3.28
- CHICHKKLYTGPGLAIHCMLVHKE [Q20L] — higher, 4
- CHICHKKLYTGPGLAIHCMRVHKE [Q20R] — higher, 2.62
- CHICHKKLYTGPGLAIHCMTVHKE [Q20T] — higher, 3.56
- CHICHKKLYTGPGLAIHCMMVHKE [Q20M] — higher, 3.65
- CHICHKKLYTGPGLAIHCMNVHKE [Q20N] — higher, 3.85
- CHICHKKLYTGPGLAIHCMPVHKE [Q20P] — higher, 2.86
- CHICHKKLYTGPGLAIHCMCVHKE [Q20C] — higher, 4.79
- CHICHKKLYTGPGLAIHCMWVHKE [Q20W] — higher, 2.92
- CHICHKKLYTGPGLAIHCMGVHKE [Q20G] — higher, 3.13
- CHICHKKLYTGPGLAIHCMKVHKE [Q20K] — higher, 2.75
- CHICHKKLYTGPGLAIHCMIVHKE [Q20I] — higher, 3.61
- CHICHKKLYTGPGLAIHCMHVHKE [Q20H] — higher, 4.04
- CHICHKKLYTGPGLAIHCMEVHKE [Q20E] — higher, 3.95
- CHICHKKLYTGPGLAIHCMFVHKE [Q20F] — higher, 3.4
- CHICHKKLYTGPGLAIHCMYVHKE [Q20Y] — higher, 3.36
- CHICHKKLYTGPGLAIHCMAVHKE [Q20A] — higher, 3.4
- CHICHKKLYTGPGLAIHCMQHHKE [V21H] — higher, 3.44
- CHICHKKLYTGPGLAIHCMQKHKE [V21K] — higher, 3.27
- CHICHKKLYTGPGLAIHCMQTHKE [V21T] — higher, 3.7
- CHICHKKLYTGPGLAIHCMQEHKE [V21E] — higher, 3.6
- CHICHKKLYTGPGLAIHCMQYHKE [V21Y] — higher, 3.93
- CHICHKKLYTGPGLAIHCMQRHKE [V21R] — higher, 2.84
- CHICHKKLYTGPGLAIHCMQPHKE [V21P] — higher, 3.21
- CHICHKKLYTGPGLAIHCMQCHKE [V21C] — higher, 4.09
- CHICHKKLYTGPGLAIHCMQAHKE [V21A] — higher, 3.84
- CHICHKKLYTGPGLAIHCMQSHKE [V21S] — higher, 3.71
- CHICHKKLYTGPGLAIHCMQLHKE [V21L] — higher, 3
- CHICHKKLYTGPGLAIHCMQNHKE [V21N] — higher, 3.48
- CHICHKKLYTGPGLAIHCMQWHKE [V21W] — higher, 2.89
- CHICHKKLYTGPGLAIHCMQMHKE [V21M] — higher, 3.72
- CHICHKKLYTGPGLAIHCMQGHKE [V21G] — higher, 3.96
- CHICHKKLYTGPGLAIHCMQIHKE [V21I] — higher, 2.49
- CHICHKKLYTGPGLAIHCMQDHKE [V21D] — higher, 3.5
- CHICHKKLYTGPGLAIHCMQFHKE [V21F] — higher, 3.35
- CHICHKKLYTGPGLAIHCMQQHKE [V21Q] — higher, 2.89
- CHICHKKLYTGPGLAIHCMQVHAE [K23A] — higher, 3.14
- CHICHKKLYTGPGLAIHCMQVHYE [K23Y] — lower, 2.19
- CHICHKKLYTGPGLAIHCMQVHEE [K23E] — higher, 3.95
- CHICHKKLYTGPGLAIHCMQVHWE [K23W] — higher, 2.25
- CHICHKKLYTGPGLAIHCMQVHFE [K23F] — lower, 2.04
- CHICHKKLYTGPGLAIHCMQVHCE [K23C] — higher, 3.06
- CHICHKKLYTGPGLAIHCMQVHSE [K23S] — higher, 3.35
- CHICHKKLYTGPGLAIHCMQVHPE [K23P] — higher, 3.04
- CHICHKKLYTGPGLAIHCMQVHGE [K23G] — higher, 3.68
- CHICHKKLYTGPGLAIHCMQVHHE [K23H] — higher, 3.48
- CHICHKKLYTGPGLAIHCMQVHVE [K23V] — higher, 3.19
- CHICHKKLYTGPGLAIHCMQVHRE [K23R] — higher, 3.13
- CHICHKKLYTGPGLAIHCMQVHTE [K23T] — higher, 2.61
- CHICHKKLYTGPGLAIHCMQVHDE [K23D] — higher, 3.87
- CHICHKKLYTGPGLAIHCMQVHQE [K23Q] — higher, 3.52
- CHICHKKLYTGPGLAIHCMQVHLE [K23L] — higher, 2.38
- CHICHKKLYTGPGLAIHCMQVHNE [K23N] — higher, 4.12
- CHICHKKLYTGPGLAIHCMQVHME [K23M] — higher, 3.49
- CHICHKKLYTGPGLAIHCMQVLKE [H22L] — lower, 2.11
- CHICHKKLYTGPGLAIHCMQVRKE [H22R] — lower, 2.11
- CHICHKKLYTGPGLAIHCMQVSKE [H22S] — lower, 1.85
- CHICHKKLYTGPGLAIHCMQVKKE [H22K] — higher, 2.41
- CHICHKKLYTGPGLAIHCMQVMKE [H22M] — higher, 2.78
- CHICHKKLYTGPGLAIHCMQVDKE [H22D] — higher, 3.04
- CHICHKKLYTGPGLAIHCMQVAKE [H22A] — higher, 2.65
- CHICHKKLYTGPGLAIHCMQVYKE [H22Y] — lower, 1.45
- CHICHKKLYTGPGLAIHCMQVFKE [H22F] — lower, 1.92
- CHICHKKLYTGPGLAIHCMQVCKE [H22C] — higher, 2.64
- CHICHKKLYTGPGLAIHCMQVNKE [H22N] — higher, 2.35
- CHICHKKLYTGPGLAIHCMQVQKE [H22Q] — lower, 1.8
- CHICHKKLYTGPGLAIHCMQVPKE [H22P] — higher, 3.15
- CHICHKKLYTGPGLAIHCMQVEKE [H22E] — higher, 2.67
- CHICHKKLYTGPGLAIHCMQVVKE [H22V] — lower, 2.03
- CHICHKKLYTGPGLAIHCMQVIKE [H22I] — higher, 2.41
- CHICHKKLYTGPGLAIHCMQVWKE [H22W] — lower, 1.68
- CHICHKKLYTGPGLAIHCMQVGKE [H22G] — lower, 1.88
- CHICHKKLYTGPGLAIHCMQVTKE [H22T] — higher, 2.48
